Test results from patent US20230330257A1 (BEIJING TIANNUOJIANCHENG PHARMA TECH, published 2023).

B1: Mab001 (antibody, V domains shown)
VH: QVQLVQSGAEVKKPGSSVKVSCKASGYTFTSYNMHWVRQAPGQGLEWMGAIYPGNGDTSYNQKFQGRVTLTADKSSSTAYMELSSLRSEDTAVYYCARSTYYGGDWYFNVWGQGTLVTVSS
VL: EIVLTQSPGTLSLSPGERATLSCRASSSVSYIHWFQQKPGQAPRPLIYATSNLASGIPDRFSGSGSGTDYTLTISRLEPEDFAVYYCQQWTSNPPTFGQGTKLEIK
notes: also called humanized Mab001 antibody; humanized anti-CD20 antibody
B2: Mab002 (antibody, V domains shown)
VH: QVQLVQSGAEVKKPGSSVKVSCKASGYTFTSYNMHWVRQAPGQGLEWMGAIYPGNGDTSYNQKFQGRVTLTADKSSSTAYMELSSLRSEDTAVYYCARSTYYGGDWYFDYWGQGTLVTVSS
VL: EIVLTQSPGTLSLSPGERATLSCRASSSVSYIHWFQQKPGQAPRPLIYATSNLASGIPDRFSGSGSGTDYTLTISRLEPEDFAVYYCQQWTSNPPTFGQGTKLEIK
notes: also called humanized Mab002 antibody; humanized anti-CD20 antibody
B3: Mab005 (antibody, V domains shown)
VH: EVQLLESGGGLVQPGGSLRLSCAASGFTFNDYAMHWVRQAPGKGLEWVSTISWNSGSIGYADSVKGRFTISRDNSKNTLYLQMNSLRAEDTAVYYCAKDIQYGNYYYGMDVWGQGTLVTVSS
VL: EIVLTQSPGTLSLSPGERATLSCRASQSVSSYLAWYQQKPGQAPRLLIYDASNRATGIPDRFSGSGSGTDFTLTISRLEPEDFAVYYCQQRSNWPITFGQGTKLEIK
notes: also called humanized Mab005 antibody; humanized anti-CD20 antibody
B4: Mab007 (antibody, V domains shown)
VH: EVQLLESGGGVVQPGGSLRLSCAASGFTFNDYAMHWVRQAPGKGLEWVSTISWNSGSIGYADSVKGRFTISRDNSKNTLYLQMNSLRAEDTAVYYCAKDIQYGNYYYGMDYWGQGTLVTVSS
VL: EIVLTQSPGTLSLSPGERATLSCRASQSVSSYLAWYQQKPGQAPRLLIYDASNRATGIPDRFSGSGSGTDFTLTISRLEPEDFAVYYCQQRSNWPITFGQGTKLEIK
notes: also called humanized Mab007 antibody; humanized anti-CD20 antibody
B5: Mab006 (antibody, V domains shown)
VH: EVQLLESGGGVVQPGGSLRLSCAASGFTFNDYAMHWVRQAPGKGLEWVSTISWNSGSIGYADSVKGRFTISRDNSKNTLYLQMNSLRAEDTAVYYCAKDIQYGNYYYGMDVWGQGTLVTVSS
VL: EIVLTQSPGTLSLSPGERATLSCRASQSVSSYLAWYQQKPGQAPRLLIYDASNRATGIPDRFSGSGSGTDFTLTISRLEPEDFAVYYCQQRSNWPITFGQGTKLEIK
notes: also called humanized Mab006 antibody; humanized anti-CD20 antibody
B6: Mab004 (antibody, V domains shown)
VH: EVQLLESGGGLVQPGGSLRLSCAASGFTFNDYAMHWVRQAPGKGLEWVSTISWNSGSIGYADSVKGRFTISRDNAKKTLYLQMNSLRAEDTAVYYCAKDIQYGNYYYGMDVWGQGTLVTVSS
VL: EIVLTQSPGTLSLSPGERATLSCRASQSVSSYLAWYQQKPGQAPRLLIYDASNRATGIPDRFSGSGSGTDFTLTISRLEPEDFAVYYCQQRSNWPITFGQGTKLEIK
notes: also called humanized Mab004 antibody; humanized anti-CD20 antibody
B7: aCD3-hVH9/VL2 (antibody, human IgG4, V domains shown)
VH: EVQLVESGGGLVQPGGSLRLSCAASGFTFNTYAMNWVRKAPGKGLEWVGRIRSKYNNYATYYADSVKDRFTISRDDSKNSLYLQMNSLKTEDTAVYYCVRHGNFGNSYVSWFAYWGQGTLVTVSS
VL: QAVVTQEPSLTVSPGGTVTLTCRSSTGAVTTSNYANWVQEKPGQAPRGLIGGTNKRAPWTPARFSGSLLGGKAALTLSGAQPEDEAEYYCALWYSNLWVFGGGTKLTVL
notes: Expressed with an antibody lambda light chain constant region and human IgG4 heavy chain constant regions CH1-CH3; also called humanized anti-CD3 antibody hVH9/VL2
B8: aCD3-hVH9/VL5 (antibody, human IgG4, V domains shown)
VH: EVQLVESGGGLVQPGGSLRLSCAASGFTFNTYAMNWVRKAPGKGLEWVGRIRSKYNNYATYYADSVKDRFTISRDDSKNSLYLQMNSLKTEDTAVYYCVRHGNFGNSYVSWFAYWGQGTLVTVSS
VL: QAVVTQEPSLTVSPGGTVTLTCRSSTGAVTTSNYANWVQEKPGQAPRGLIGGTNKRAPWTPARFSGSLLGGKAALTITGAQAEDEAEYYCVLWYSNLWVFGGGTKLTVL
notes: Expressed with an antibody lambda light chain constant region and human IgG4 heavy chain constant regions CH1-CH3; also called humanized anti-CD3 antibody hVH9/VL5
B9: aCD3-hVH9/VL1 (antibody, human IgG4, V domains shown)
VH: EVQLVESGGGLVQPGGSLRLSCAASGFTFNTYAMNWVRKAPGKGLEWVGRIRSKYNNYATYYADSVKDRFTISRDDSKNSLYLQMNSLKTEDTAVYYCVRHGNFGNSYVSWFAYWGQGTLVTVSS
VL: QAVVTQEPSLTVSPGGTVTLTCRSSTGAVTTSNYANWVQQKPGQAPRGLIGGTNKRAPWTPARFSGSLLGGKAALTLSGAQPEDEAEYYCALWYSNLWVFGGGTKLTVL
notes: Expressed with an antibody lambda light chain constant region and human IgG4 heavy chain constant regions CH1-CH3; also called humanized anti-CD3 antibody hVH9/VL1
B10: aCD3-hVH9/VL3 (antibody, human IgG4, V domains shown)
VH: EVQLVESGGGLVQPGGSLRLSCAASGFTFNTYAMNWVRKAPGKGLEWVGRIRSKYNNYATYYADSVKDRFTISRDDSKNSLYLQMNSLKTEDTAVYYCVRHGNFGNSYVSWFAYWGQGTLVTVSS
VL: EAVVTQEPSLTVSPGGTVTLTCESSDGAVTTSNYANWVQEKPGQAPRGLIGGTNKEAPWTPARFSGSLLGGKAALTLSGAQPEDEAEYYCALWYSNLWVFGGGTKLTVL
notes: Expressed with an antibody lambda light chain constant region and human IgG4 heavy chain constant regions CH1-CH3; also called humanized anti-CD3 antibody hVH9/VL3
B11: aCD3-hVH8/VL1 (antibody, human IgG4, V domains shown)
VH: EVQLVESGGGLVQPGGSLRLSCAASGFTFNTYAMNWVRKAPGKGLEWVGRIRSKYNNYATYYADSVKDRFTISRDDSKNSLYLQMNSLKTEDTAVYYCARHGNFGNSYVSWFAYWGQGTLVTVSS
VL: QAVVTQEPSLTVSPGGTVTLTCRSSTGAVTTSNYANWVQQKPGQAPRGLIGGTNKRAPWTPARFSGSLLGGKAALTLSGAQPEDEAEYYCALWYSNLWVFGGGTKLTVL
notes: Expressed with an antibody lambda light chain constant region and human IgG4 heavy chain constant regions CH1-CH3; also called humanized anti-CD3 antibody hVH8/VL1
B12: aCD3-hVH8/VL5 (antibody, human IgG4, V domains shown)
VH: EVQLVESGGGLVQPGGSLRLSCAASGFTFNTYAMNWVRKAPGKGLEWVGRIRSKYNNYATYYADSVKDRFTISRDDSKNSLYLQMNSLKTEDTAVYYCARHGNFGNSYVSWFAYWGQGTLVTVSS
VL: QAVVTQEPSLTVSPGGTVTLTCRSSTGAVTTSNYANWVQEKPGQAPRGLIGGTNKRAPWTPARFSGSLLGGKAALTITGAQAEDEAEYYCVLWYSNLWVFGGGTKLTVL
notes: Expressed with an antibody lambda light chain constant region and human IgG4 heavy chain constant regions CH1-CH3; also called aCD3-hVH8/VLS (so in the source)
B13: aCD3-hVH1/VL5 (antibody, human IgG4, V domains shown)
VH: EVQLVESGGGLVQPGGSLRLSCAASGFTFNTYAMNWVRQAPGKGLEWVSRIRSKYNNYATYYADSVKDRFTISRDDSKNTLYLQMNSLKTEDTAVYYCVRHGNFGNSYVSWFAYWGQGTLVTVSS
VL: QAVVTQEPSLTVSPGGTVTLTCRSSTGAVTTSNYANWVQEKPGQAPRGLIGGTNKRAPWTPARFSGSLLGGKAALTITGAQAEDEAEYYCVLWYSNLWVFGGGTKLTVL
notes: Expressed with an antibody lambda light chain constant region and human IgG4 heavy chain constant regions CH1-CH3; also called humanized anti-CD3 antibody hVH1/VL5

These binders were tested against T1, human CD20 (human, UniProt P11836 1-297) (assay: flow cytometry on Raji cells, Alexa Fluor 647 goat anti-human IgG Fc).
T1 construct: whole, on cells; also called CD20 receptor; CHO-human CD20 (clone 3G6)
T1 sequence (looked up): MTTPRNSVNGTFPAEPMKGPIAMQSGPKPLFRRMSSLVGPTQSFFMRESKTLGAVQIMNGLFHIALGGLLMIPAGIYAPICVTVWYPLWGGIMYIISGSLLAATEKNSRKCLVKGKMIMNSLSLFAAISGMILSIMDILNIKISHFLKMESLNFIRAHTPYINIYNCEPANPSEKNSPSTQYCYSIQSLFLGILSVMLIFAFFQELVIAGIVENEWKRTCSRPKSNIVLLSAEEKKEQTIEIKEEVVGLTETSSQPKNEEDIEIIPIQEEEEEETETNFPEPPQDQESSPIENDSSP
Protocol: (§1) A lymphoma cell line Raji and Daudi cells in the logarithmic growth phase were taken, 200 μg/mL mouse IgG (Jackson ImmunoResearch) was added, and the mixture was blocked for 30 min. 5×10⁴ cells and 50 μL, of gradient-diluted antibody (the initial concentration of 200 nM, 5-fold dilution, a total of 8 gradients) were added to each well of a 96-well U-shaped plate, and incubated on ice for 45 min. After the cells were washed, 50 μL, of Alexa Fluro647-labelled goat anti-human IgG Fc (1: 300 dilution) was added to each well, and the mixture was incubated on ice for 45 min. 60 μL, of PI (Sigma, P4170) was added to each well, and the mixture was incubated for 5 min and detected by using a flow cytometer (iQue Screener).
B1: binds.
B2: binds.

The binders below were run against T1, human CD20 (assay: flow cytometry on Daudi cells, Alexa Fluor 647 goat anti-human IgG Fc).
Protocol: as §1
With B3 the “EC50 (read off the curve)” value was about 10 nM.
With B4 the “EC50 (read off the curve)” value was about 10 nM.
With B5 the “EC50 (read off the curve)” value was about 10 nM.
In the case of B6, the “EC50 (read off the curve)” value is reported as about 10 nM.

Molecular target: T2, recombinant human CD3εγ-Fc heterodimer (human)
T2 construct: Extracellular regions of CD3γ and CD3ε as Fc hole/knob heterodimer; also called human CD3εγ protein; recombinant human CD3γ/ε antigen
T2 chain 1: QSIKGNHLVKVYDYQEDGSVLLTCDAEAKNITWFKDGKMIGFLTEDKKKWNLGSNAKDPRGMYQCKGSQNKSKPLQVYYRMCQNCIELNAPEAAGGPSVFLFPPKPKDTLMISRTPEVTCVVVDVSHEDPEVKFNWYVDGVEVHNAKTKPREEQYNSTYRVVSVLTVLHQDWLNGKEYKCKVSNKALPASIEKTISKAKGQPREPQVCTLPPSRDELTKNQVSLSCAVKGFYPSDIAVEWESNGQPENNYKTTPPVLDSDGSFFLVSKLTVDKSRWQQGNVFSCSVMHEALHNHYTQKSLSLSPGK
T2 chain 2: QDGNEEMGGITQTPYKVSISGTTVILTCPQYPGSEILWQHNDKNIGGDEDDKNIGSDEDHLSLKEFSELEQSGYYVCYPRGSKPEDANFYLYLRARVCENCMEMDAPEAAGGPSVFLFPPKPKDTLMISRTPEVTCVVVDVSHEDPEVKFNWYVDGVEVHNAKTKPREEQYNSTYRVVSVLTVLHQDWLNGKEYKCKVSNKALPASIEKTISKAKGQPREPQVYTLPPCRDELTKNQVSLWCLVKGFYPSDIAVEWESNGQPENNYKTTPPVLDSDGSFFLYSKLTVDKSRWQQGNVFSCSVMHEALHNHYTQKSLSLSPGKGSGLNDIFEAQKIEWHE
Experiment: ELISA, human CD3εγ protein coated on the plate, HRP goat anti-human IgG Fc, A450
Protocol: Human CD3εγ protein was coated onto a plate and placed at 4° C. overnight.
With B7 the “EC50 (read off the curve)” value was about 0.6 nM.
For B8, the “EC50 (read off the curve)” value was about 0.5 nM.
In the case of B9, the “EC50 (read off the curve)” value is reported as about 0.6 nM.
With B10 the “EC50 (read off the curve)” value was about 0.6 nM.
For B11, the “EC50 (read off the curve)” value was about 0.6 nM.
In the case of B12, the “EC50 (read off the curve)” value is reported as about 0.6 nM.
For B13, the “EC50 (read off the curve)” value was about 0.6 nM.
